This is an account of results in the nanobody polyreactivity screen of Harvey et al. (2022).

A short description of the series: yeast display, Sf9 membrane polyspecificity reagent, FACS + sequencing; frameworks hold sequencing errors. In outline: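 Genes from sorted yeast were amplified by colony PCR, read by MiSeq 2 × 250 sequencing and filtered on CDR length. These cells carried a synthetic nanobody library in Saccharomyces cerevisiae BJ5465 and were sorted by FACS into low and high (top ~1%) gates on anti-HA and streptavidin fluorescence. Polyreactivity is labelled according to the gate of origin.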
For “QVQLVESGGGLVQAGGSLRLSCAASGFIFKIYAMGWYRQAPGKERELVAAMSSGDNTNYADSVKGRFTISRDNAKNTVYLQMNSLKPEDTAVYYCAADWSPTAASDYWGQGTQVTVSS”, the “polyreactivity (PSR sort gate)” value is “high polyreactivity”.

For “QFQLVESGGGLVQAGGSLRLSCAASGRIFYSYAIGWYRQAPGKERELVAAINWSSVRTYYADSVKGRFTISRDNAKNTVYLQMNSLKPEDTAVYYWNAYSTEWGRYDYWGQGTQVTVSS”, the “polyreactivity (PSR sort gate)” value is “high polyreactivity”.

With “QVQLVESGGGLVQAGGSLRVSCAASGRTFKYYARGWYRQAPGKARELVAAISGSGGSTYYADSVKGRFTISRDNAKNTVYLQMNSLKPEDTAVYYCAAAGKETSRNAYDSWGQGTQETVSS”, the “polyreactivity (PSR sort gate)” value is “high polyreactivity”.

With “QVQLVESRGGLVQAGGSLRLSCAASGSTFSPYVMGWYREAPGKERELFAAIRGRGGNTYYADSVKGRFTISRDNAKNTVYLQMNSLKPEDSAVYYCAAQSFAQYGWRYGDWGQVTQVTVSS”, the “polyreactivity (PSR sort gate)” value is “high polyreactivity”.

As to “QVQLVESGGGLVQAGGRLRLSCAASGRIFKPNAMGSYRQAPGKEREFVARITRNTGSTYYADSVKGRFSISRDNEKNTVYLQMNSLKPEDNAVYDCAAGAPSYYYYWGHGTQVTVSS”, the “polyreactivity (PSR sort gate)” value is reported as “high polyreactivity”.

Turning to “QVQLVESGGGLVQAGGSLRLSCAASGSIFAKYGMGWYRQAPGKEREFVAAISKSGGITYYADSVKGRFTISRDNAKNTVYLQMNSLKPEDTAVYYCADSYVSYRKRDDYWGQGTQVTVSS”, the “polyreactivity (PSR sort gate)” value is “high polyreactivity”.

In the case of “QVQLVESGGGLVQAGGSLRLSCSASGRIFWDYAMGRYRQAPGKERELVASSSTDGSTYYADSVKGRFTISRDNANNTFYLQMNSLKPEDTAVYYCAARGYRGRMGYWGQGTQVTVSS”, the “polyreactivity (PSR sort gate)” value is reported as “low polyreactivity”.

Turning to “QVQLVESGGGLVQAGGSLRLSCAASGSIFVRNTMGWYRQAPGKERELVATISSGGRTYYADSVKGRFTISRDNAKNTVYLQMNSLKPEETAVYYCAAGYSYAQYSYPFLSFAFGYWGQGTQVTVSS”, the “polyreactivity (PSR sort gate)” value is reported as “high polyreactivity”.

As to “QVQLVESGGGIVQAGGSLRLSCAASGSTFNWNAMGWYRQAPGKEREFVAAISKSGGTTYYADSVKGRFTISRDNAKNTVYLQMNSLKPEDTAVYYCAAVRRYHSYPDGGYWGQGTQVTVSS”, the “polyreactivity (PSR sort gate)” value is on record as “high polyreactivity”.

Turning to “QVQLVESGGGLVQAGGSLRLSCAASGRIFAYYAMGWYRQAPGKERELVAAISRSGVSTYYADSVKGRFTISRDNAKNTVYLQMNSLKPEDTAVYYCAASWWYEIFDYWGQGTQVTVSS”, the “polyreactivity (PSR sort gate)” value was “low polyreactivity”.

“QVQLVESGGGLVQAGGSLRLSCAASGRTFGRNAMGWYRQAPRKERELVAAISDRGVSTYYADSVKGRFTISRDNAKNTVYLQMNSLKPEDTAVYYCAAVFWVDILPGDYWGQGTQVTVSS”: the “polyreactivity (PSR sort gate)” value is “low polyreactivity”.

Consider “QVHLLESGGGLVQAGGSLRLSCAASGRTLSRYTMGWYRQAPGKERELVAAISTSGSTYYADSVKGRFTISRDNAKNTVYLPMNCLKPEDTAVYYCAATHWAYSRVPYDYWGQGTQVTVSS”, for which the “polyreactivity (PSR sort gate)” value is on record as “high polyreactivity”.

Turning to “QVQLVESGGGLVQAGGSLRLSCAASGSIFADNTMGWSRQSPGKERELVAAITSSGRTYYADSVKGRFTISRDNAKNTVYLQMNSLKPEDTAVYYCAAVIYFHDYSPYYYWGQGTQVTVSS”, the “polyreactivity (PSR sort gate)” value is given as “high polyreactivity”.

With “QVQLVESGGGLVQAGGSLRLSCAPSGYTFIFNVMGWYRQAPGKERELVAAISYSGGSTNYADSVKGRYTTSRDNAKNTVYFQMNSLKPEDTAVYYCNARTVSRNGYQDDYWGQGTQVTVSS”, the “polyreactivity (PSR sort gate)” value is “low polyreactivity”.

“QVQLVESGGGLVQAGGSLRLSCAASVSIFKVNAMGWYRQAPGKERELVAAISTSGSRTYYADSVKGRFTISRDNAKNTVYLQMNSLKPEDTAVYYCADDSYAGIVRYGYWGKGTQVTVSS”: the “polyreactivity (PSR sort gate)” value is recorded as “high polyreactivity”.

Regarding “QVQLVESGGGLVQAGGSLRLSCAASGITFYRYVMGWYRQAPAKERELVAAITTGDSTSYADSVKGRFTISRDNAKNTVYLQMNSLKPEDTAVYYCAAVYYTALANYDYWGQGTQVTVSS”, the “polyreactivity (PSR sort gate)” value is “low polyreactivity”.

Regarding “QVQLVETGGGLVQAGGSLRLSCAASGLIFSYKAMGWYRQAPGKERELVGAISRGGSTYYADSVKGRFTISRDNAKNTVYLQMNSLKRVDTAVYYCAADFYGWVDYWGQGTQVTVSS”, the “polyreactivity (PSR sort gate)” value was “high polyreactivity”.

Consider “QVQLVESGGGLVQAGGSLRLSCAASGFILKYYAMGWYRQAPGKERELVAAISSSGGRTYYADSVKGRFTISRDNAKNTVYLQMNSLKPEDTAVYYCAARVIASRGRYGYWGQGTQVTVSS”, for which the “polyreactivity (PSR sort gate)” value is “high polyreactivity”.

Consider “QVQLVESGGGLVQAGASLRLSCAASGSTFGSYTMGWYRQAPWKERELVAAINWTGGNTYYADSVKGRFTISRDYAKNTVYLQMNSLKPEDTAVYYCAAAFYIYGVEGDYWGQGTQVTVSS”, for which the “polyreactivity (PSR sort gate)” value is “low polyreactivity”.

Consider “QVQLVESGGGLVQAGGSLRLSCAASGSTFYSYAMGWYRQAPGKEREFVAAIRYSGGRTYADSVKGRFSISRDNAKNTVYLQMNSLKPEDTAVYYCAAVYYSYRWPYDYWGQGTQVTVSS”, for which the “polyreactivity (PSR sort gate)” value was “high polyreactivity”.

Regarding “QVQLVESGGGLVQAGGSLRLSCAPSGRILGYYAMGWYRQAPGKERELVAAISSGDSTNYADSVKGRFTISRDNAKYTVYLQMNSLKPEDTAVYYCAAKGWIWNAYNYWGQGTQVTVSS”, the “polyreactivity (PSR sort gate)” value is on record as “low polyreactivity”.

On to “QVQLVESGGGLVQAGGSLRLSCAASGRIFVTYVMGWYRQAPGKERELVAAISRRGGTTYYADSVKGRFTISRDNAKNTVYLQMNSLKPEDTAVYYCNVARDYAVESGYWGQGTQVTVSS”, for which the “polyreactivity (PSR sort gate)” value was “high polyreactivity”.

Regarding “QVQLVESGGGIVQAGGSLRLSCAASGRIFGYYAMGWYRQARGKERELVAAITWSGGRTYYADSVKGRFTISRDNAKNTVYLQMNSLKPDDTAVYYCAAVVQGPNRKYNYWGQGTQVTVSS”, the “polyreactivity (PSR sort gate)” value is listed as “high polyreactivity”.

As to “QVQLVESGGGLVQAGGSLRLSCAASGSIFYKYVMGWYRQAPGKERELVAAISRGGGSTYYADSVKGRFTISRDNAKNTVYLQMNSLKPEDTAVYYCNAVGRPRYGHGFDHWGQGTQVTVSS”, the “polyreactivity (PSR sort gate)” value is listed as “high polyreactivity”.

Take “QVQLVESGGGLVQAGGSLRLSCAASGFTFEGYAMGGYRQAPGKERELVAAINGSGGSTYYADSVKGRFTISRDYAKNTVYLQMNSLKPEDTAVYYCAKSGYGNRGFDYWGQGTQVTVSS”: the “polyreactivity (PSR sort gate)” value is “low polyreactivity”.

Consider “QVQLVESGGGLVQAGGSLRLTCAASGYIQPKNTMGWYRQAPGKERELVAAISWSGGSTFYADSVKGRFTISRDNAKNTVYLKMNSLKPVDTAVYYCAADRSWSWYYRYDYWGQGTQVTLSS”, for which the “polyreactivity (PSR sort gate)” value was “low polyreactivity”.

As to “QVHLVESGGGLVQAGGSLRLSCAASGRTFSKYAMGWYRPAPGKERELVAAITSRGSSTYYADSVKGRFTISRDYAKNTVYLLMNSLKPEDTAVYYCNAGGYYIRTGWYRSGSDYWGQGTQVTVSS”, the “polyreactivity (PSR sort gate)” value is on record as “high polyreactivity”.

In the case of “QVQLVESGGGLVQAGGSLRLSCDASGRIFFNTMGWYRQAPGKERELVAAISSGGSTSYADSVKGRFTISRDNAKNTVYLQMNSLKPEDTAVYYCADLKLYIYDYWGQGTQVTVSS”, the “polyreactivity (PSR sort gate)” value is listed as “high polyreactivity”.

In the case of “QVQLVESGGGLVQAGGSLRLSCAASGSISTFYAMGWYRQAPGKEREFVAAISTRDGTTRYADSVKGRFTISRDNAKNTVYLQMNSLKPEDTAVYYCAAKGGGVWLYARIYSDYYWGQGTQVTVSS”, the “polyreactivity (PSR sort gate)” value was “low polyreactivity”.

Take “QVQLVESGGGLVQAGGSLRLSCAASGSTFGNNAKGWYRQAPGKERELVAAITFRGTSTYADSVKGRFTISRDYAKNTVYLQMNSLKPEDTAVYYCAAVVYFVSYRFYYWGQGTQVTVSS”: the “polyreactivity (PSR sort gate)” value is given as “high polyreactivity”.

For “QVQLVESGGGLVQAGGSLRLSCAASGRTIYQYAMGWYRQAPGKERELVAAISRGGSTNYADSLKGRFTISRDNAKNTVYLQMNSLKPEDTAVYYCASWYKFLSLKRLYERDYWGQGTQVTVSS”, the “polyreactivity (PSR sort gate)” value is reported as “high polyreactivity”.

As to “QVQLVESGGGLVQAGGSLRLSCAASGFTFHKNAMGWYRQAPGKERELVAAITNRGGSTYYADSVKGRFTISRDNAKNTVYLQMNSLKPEDTAVYYCAAELRPYITYVGPRKKFYYWGQGTQVTVSS”, the “polyreactivity (PSR sort gate)” value is on record as “high polyreactivity”.

On to “QVQLVESGGGLVQAGGSLRLSCAASGGTFRVYVMGLYRQATGKERELVAAISRGGGSTYYADSVKGRFTISRDNAKNTVYLQMNSLKPEDTAVYYCAARVWRYPWRASEYDYWGQGTQVTVSS”, for which the “polyreactivity (PSR sort gate)” value is “high polyreactivity”.

As for “QVQLVESGGGLVQAGGSLRLSCAASGSTFVTYAMGCYRQAPGKERELVAVITYSGGNTYYADSVKGRVTISRDNAKNTVYLQMNSLKPEDTAVYDCAAAWLTSRGSRDSHRKYYYWGQGTQVTVSS”, the “polyreactivity (PSR sort gate)” value is given as “high polyreactivity”.

As for “QVQLVESGGGLVQAGGSLRLSCAASGSIFNLNAMGWYIQAPGKERELVASISSDRSTYYADSVKGRFTISRDNAKNTVYLQMNSLKQEDTAVYYCNADSQLAFKQLSFDYWGQGTQVTVSS”, the “polyreactivity (PSR sort gate)” value is on record as “low polyreactivity”.

Consider “QVQLVESGGGLVQAGGSLRLSCAASGSIFPSYAMGWYRQAPGKERELVAAISSGGTTNYADSVKGRFTISLDNAKNTVYLQMNSLKPEDTAVYYCAAVRGDSEDRYDHWGQGTQVTVSS”, for which the “polyreactivity (PSR sort gate)” value is recorded as “high polyreactivity”.

Consider “QVQLVESGGGLVQAGGSLRLSCAASGRTFKFNTMGWYRQAPGKEREVVAAISWTGAITHYADSVKGRFTISRDNAKNTVYLQMNSLKPEDTAVYYCNSDPYRRIYNYWGQGTQVTVSS”, for which the “polyreactivity (PSR sort gate)” value is “low polyreactivity”.

Take “QVQLVESGGGLVQAGGSLRLSCAASGRIFRFNAMGWYRQAPGKERELVAAITGSGGTTFYADSVKGRFTISRDNAKNTVYLQMNSLKPEDTAVYYCITLGNWRPVYNQPRYEYWGQGTQVTVSS”: the “polyreactivity (PSR sort gate)” value was “high polyreactivity”.

In the case of “QVQLVESRGGLVQAGGSLRLSCAASGRTFSGNAMGWYRQAPGKERELVAAITSVGTTNYADSVKGRFTISRDNANNTVYLQMNSLKPEHTAVYYCAADPPSDYYKYDYWGHGTQVTVSS”, the “polyreactivity (PSR sort gate)” value is “low polyreactivity”.

“QVQLVESGGGLVKAGGSLRLSCASSGRIFRYYTMGWYRQAPGKERELVAAISTSDDSTNYADSVKGRFTISRDNAKNTVYLQMNSLKPEDTAVYYCAADQSRVGSYQDYDYWGQGTQVTVSS”: the “polyreactivity (PSR sort gate)” value is on record as “low polyreactivity”.

On to “QVQLVESGGGLVQAGGSLRLSCAASGITFFLYTMGWYRQAPGKERELVAAITWRGTSTYYADSVKGRFTISRDNAKNTVYLQMNSLKPEDTGVYYCAARSRRGGYPRYYYWGQGTQVTVSS”, for which the “polyreactivity (PSR sort gate)” value is “high polyreactivity”.
